We go through 68 variants from the RNAGym collection of RNA variant scans (doi:10.1093/nar/gkz1192).

To fix the notation:
B1: CPEB3 Ribozyme (parent)
chain: UAACAGGGGGCCACAGCAGAAGCGUUCACGUCGCAGCCCCUGUCAGAUUCUGGUGAAUCUGCGAAUUCUGCUGUAUAUCUC

Variants of B1 are the subject of the series. The series can be described thus: self-cleavage, relative activity (ratio to wild type); higher = more cleavage; in vitro, sequencing. In a few lines: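 After error-prone PCR and barcoding, CPEB3 ribozyme mutant libraries were transcribed with T7 RNA polymerase at 37°C for 5 hours, then given 15 min with DNase I before an EDTA stop, and they cleaved during both steps. Reverse transcription with template switching preceded Illumina sequencing. Relative activity divides a variant's cleaved/total read fraction by the unmutated ribozyme's. At least 5 reads were required per variant, and three batches were averaged.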
UAACAGGGGGCCACAGCAGAAGCGUUCACGUCGCAGCCCCGGUCAGAUUCUGGUGAAUCUGCGAAUUCUGCUGUAUGUCUC: the self-cleavage was 0.2. Consider UAACAGGGGGCCACAGCAGAAGCGUUCACGUCGCAGCCCCGGUCAGAUUCUGGUGAAUCUGCGAAUUCUGCUGUAUUUCUC, for which the self-cleavage was found to be 0.36.

In the case of UAACAGGGGGCCACAGCAGAAGCGUUCACGUCGCAGCCCCGGUCGGAUUCUGGUGAAUCUGCGAAUUCUGCUGUAUAUCUC, the self-cleavage stood at 0.25. On to UAACAGGGGGCCACAGCAGAAGCGUUCACGUCGCAGCCCCGGUCUGAUUCUGGUGAAUCUGCGAAUUCUGCUGUAUAUCUC, for which the self-cleavage turned out to be 0.17. For the variant UAACAGGGGGCCACAGCAGAAGCGUUCACGUCGCAGCCCCCGUCAGAUUCUGGUGAAUCUGCGAAUUCUGCUGUAGAUCUC, the self-cleavage came out at 1.05.

On to UAACAGGGGGCCACAGCAGAAGCGUUCACGUCGCAGCCCCCGUCAGAUUCUGGUGAAUCUGCGAAUUCUGCUGUAAAUCUC, for which the self-cleavage was determined as 1.17. Regarding UAACAGGGGGCCACAGCAGAAGCGUUCACGUCGCAGCCCCCGUCAGAUUCUGGUGAAUCUGCGAAUUCUGCUGUACAUCUC, the self-cleavage is 1.05. To UAACAGGGGGCCACAGCAGAAGCGUUCACGUCGCAGCCCCUAUCAGAUUCUGGUGGAUCUGCGAAUUCUGCUGUAUAUCUC belongs 0.16. Regarding UAACAGGGGGCCACAGCAGAAGCGUUCACGUCGCAGCCCCUAUCAGAUUCUGGUGUAUCUGCGAAUUCUGCUGUAUAUCUC, the self-cleavage stood at 0.28. Next, UAACAGGGGGCCACAGCAGAAGCGUUCACGUCGCAGCCCCGGUCAGAUUCUGGUGAACCUGCGAAUUCUGCUGUAUAUCUC: 0.18; UAACAGGGGGCCACAGCAGAAGCGUUCACGUCGCAGCCCCGGUCAGAUUCUGGUGAAACUGCGAAUUCUGCUGUAUAUCUC: 0.33. Turning to UAACAGGGGGCCACAGCAGAAGCGUUCACGUCGCAGCCCCGGUCAGAUUCUGGUGAAGCUGCGAAUUCUGCUGUAUAUCUC, the self-cleavage was 0.16. In the case of UAACAGGGGGCCACAGCAGAAGCGUUCACGUCGCAGCCCCGGUCAGAUUCUGGUGAAUCUGCGAAUUCUGGUGUAUAUCUC, the self-cleavage stood at 0.33. UAACAGGGGGCCACAGCAGAAGCGUUCACGUCGCAGCCCCGGUAAGAUUCUGGUGAAUCUGCGAAUUCUGCUGUAUAUCUC: the self-cleavage was 0.13. To UAACAGGGGGCCACAGCAGAAGCGUUCACGUCGCAGCCCCGGUCAGGUUCUGGUGAAUCUGCGAAUUCUGCUGUAUAUCUC belongs 0.37; to UAACAGGGGGCCACAGCAGAAGCGUUCACGUCGCAGCCCCGGUCAGAUCCUGGUGAAUCUGCGAAUUCUGCUGUAUAUCUC, 0.38.

Consider UAACAGGGGGCCACAGCAGAAGCGUUCACGUCGCAGCCCCUAUCAGAUUCUGGUGAGUCUGCGAAUUCUGCUGUAUAUCUC, for which the self-cleavage stood at 0.16.

Take UAACAGGGGGCCACAGCAGAAGCGUUCACGUCGCAGCCCCCGUCAGAUUCUGGUGAAUCUGCGAAUUCUGCUGUAUAUCAC: the self-cleavage is 1.15.

Take UAACAGGGGGCCACAGCAGAAGCGUUCACGUCGCAGCCCCCGUCAGAUUCUGGUGAAUCUGCGAAUUCUGCUGUAUAUCGC: the self-cleavage was found to be 1.29. Consider UAACAGGGGGCCACAGCAGAAGCGUUCACGUCGCAGCCCCCGUCAGAUUCUGGUGAAUCUGCGAAUUCUGCUGUAUAUCCC, for which the self-cleavage was found to be 1.04. On to UAACAGGGGGCCACAGCAGAAGCGUUCACGUCGCAGCCCCGGUCAGAUUCUGGUGAAUCUGCGAAUUCUGCUGUAUAGCUC, for which the self-cleavage came out at 0.2.

As to UAACAGGGGGCCACAGCAGAAGCGUUCACGUCGCAGCCCCGGUCAGAUUCUGGUGAAUCUGCGAAUUCUGCUGUAUACCUC, the self-cleavage is 0.21.

Take UAACAGGGGGCCACAGCAGAAGCGUUCACGUCGCAGCCCCGGUCAGAUUCUGGUGAAUCUGCGAAUUCUGCUGUAUAACUC: the self-cleavage came out at 0.26. UAACAGGGGGCCACAGCAGAAGCGUUCACGUCGCAGCCCCGGUCAGAUUCUGGUGAAUCUGCGAGUUCUGCUGUAUAUCUC: the self-cleavage turned out to be 0.35. For the variant UAACAGGGGGCCACAGCAGAAGCGUUCACGUCGCAGCCCCGGUCAGAUUCUCGUGAAUCUGCGAAUUCUGCUGUAUAUCUC, the self-cleavage was 0.14. Next, UAACAGGGGGCCACAGCAGAAGCGUUCACGUCGCAGCCCCGGUCAGAUUCUGGUGAAUCUGCGAAUUCGGCUGUAUAUCUC: 0.22; UAACAGGGGGCCACAGCAGAAGCGUUCACGUCGCAGCCCCGGUCAGAUUCUGGUGAAUCUGCGAAUUCAGCUGUAUAUCUC: 0.36; UAACAGGGGGCCACAGCAGAAGCGUUCACGUCGCAGCCCCGGUCAGAUUCUGGUGAAUCUGCGAAUUCCGCUGUAUAUCUC: 0.19.

For the variant UAACAGGGGGCCACAGCAGAAGCGUUCACGUCGCAGCCCCGGUCAGAUUCUGGUGAAUCUGCGAAUUCUGCUGUAUAUCCC, the self-cleavage amounted to 0.29.

UAACAGGGGGCCACAGCAGAAGCGUUCACGUCGCAGCCCCGGUCAGAUUCUGGUGAAUCUGCGAAUUCUGCUGUAUAUCAC: the self-cleavage is 0.26. For the variant UAACAGGGGGCCACAGCAGAAGCGUUCACGUCGCAGCCCCGGUCAGAUUCUGGUGAAUCUGCGAAUUCUGCUGUGUAUCUC, the self-cleavage was 0.18. UAACAGGGGGCCACAGCAGAAGCGUUCACGUCGCAGCCCCUAUCCGAUUCUGGUGAAUCUGCGAAUUCUGCUGUAUAUCUC: the self-cleavage came out at 0.32. To UAACAGGGGGCCACAGCAGAAGCGUUCACGUCGCAGCCCCUAUCGGAUUCUGGUGAAUCUGCGAAUUCUGCUGUAUAUCUC belongs 0.3; to UAACAGGGGGCCACAGCAGAAGCGUUCACGUCGCAGCCCCGGUCAGAUUCUGGUGAAUCUGCGAAUUCUGCUGCAUAUCUC, 0.35. For the variant UAACAGGGGGCCACAGCAGAAGCGUUCACGUCGCAGCCCCGGUCAGAUUCUGGUGAAUCUGCGAAUUCUGCUGAAUAUCUC, the self-cleavage was determined as 0.37.

As to UAACAGGGGGCCACAGCAGAAGCGUUCACGUCGCAGCCCCGGUCAGAUUCUGGGGAAUCUGCGAAUUCUGCUGUAUAUCUC, the self-cleavage stood at 0.23. With UAACAGGGGGCCACAGCAGAAGCGUUCACGUCGCAGCCCCGGUCAGAUUCUGGCGAAUCUGCGAAUUCUGCUGUAUAUCUC, the self-cleavage is 0.38. In the case of UAACAGGGGGCCACAGCAGAAGCGUUCACGUCGCAGCCCCGGUCAGAUUCUGGUGAAUCUGCGAAUCCUGCUGUAUAUCUC, the self-cleavage worked out at 0.17. As to UAACAGGGGGCCACAGCAGAAGCGUUCACGUCGCAGCCCCGGUCAGAUUCUGGUGAAUCUGCGAAUACUGCUGUAUAUCUC, the self-cleavage was found to be 0.2.

As for UAACAGGGGGCCACAGCAGAAGCGUUCACGUCGCAGCCCCGGUCAGAUUCUGGUGAAUCUGCGGAUUCUGCUGUAUAUCUC, the self-cleavage came out at 0.26.

UAACAGGGGGCCACAGCAGAAGCGUUCACGUCGCAGCCCCGGUCAGAUUCUGGUGAAUCUGCGUAUUCUGCUGUAUAUCUC: the self-cleavage stood at 0.14. UAACAGGGGGCCACAGCAGAAGCGUUCACGUCGCAGCCCCGGUCAGAUUCUGGUGAAUCUGCGAAUUCUGCUGUAUAUCUC: the self-cleavage turned out to be 0.29.

Turning to UAACAGGGGGCCACAGCAGAAGCGUUCACGUCGCAGCCCCGGUCAGAUUCUGGUGAAUCUGCGAAUUCUGCUGUAAAUCUC, the self-cleavage turned out to be 0.14. Consider UAACAGGGGGCCACAGCAGAAGCGUUCACGUCGCAGCCCCGGUCAGAUUCUGGUGAAUCUGCGAAUUCUGCUGUACAUCUC, for which the self-cleavage is 0.27. For UAACAGGGGGCCACAGCAGAAGCGUUCACGUCGCAGCCCCGGUCAGACUCUGGUGAAUCUGCGAAUUCUGCUGUAUAUCUC, the self-cleavage amounted to 0.36.

Regarding UAACAGGGGGCCACAGCAGAAGCGUUCACGUCGCAGCCCCGGUCAGAUUCUGGUGUAUCUGCGAAUUCUGCUGUAUAUCUC, the self-cleavage amounted to 0.25. Consider UAACAGGGGGCCACAGCAGAAGCGUUCACGUCGCAGCCCCGGUCAGAUUCUGGUGGAUCUGCGAAUUCUGCUGUAUAUCUC, for which the self-cleavage is 0.22. As to UAACAGGGGGCCACAGCAGAAGCGUUCACGUCGCAGCCCCGGUCAGAUUCUGGUGAAUCAGCGAAUUCUGCUGUAUAUCUC, the self-cleavage is 0.16. In the case of UAACAGGGGGCCACAGCAGAAGCGUUCACGUCGCAGCCCCGGUCAGAUUCUGGUGAAUCCGCGAAUUCUGCUGUAUAUCUC, the self-cleavage turned out to be 0.18.

As to UAACAGGGGGCCACAGCAGAAGCGUUCACGUCGCAGCCCCUAUCAGAUUCUGGUGAAUCUGCGAAUUCUGCUGUAUAUCUC, the self-cleavage came to 0.34.

Consider UAACAGGGGGCCACAGCAGAAGCGUUCACGUCGCAGCCCCGGUCAGAUUCUGGUGAAUCUGCGAAUUCUGCUGUAUAUCUU, for which the self-cleavage was found to be 0.33.

Take UAACAGGGGGCCACAGCAGAAGCGUUCACGUCGCAGCCCCGGACAGAUUCUGGUGAAUCUGCGAAUUCUGCUGUAUAUCUC: the self-cleavage was found to be 0.28. As for UAACAGGGGGCCACAGCAGAAGCGUUCACGUCGCAGCCCCGGCCAGAUUCUGGUGAAUCUGCGAAUUCUGCUGUAUAUCUC, the self-cleavage worked out at 0.33. UAACAGGGGGCCACAGCAGAAGCGUUCACGUCGCAGCCCCCGUCAGAUUCUGGUGAAUCUGCGAAUUCUGCUGCAUAUCUC: the self-cleavage was 1.23. As for UAACAGGGGGCCACAGCAGAAGCGUUCACGUCGCAGCCCCCGUCAGAUUCUGGUGAAUCUGCGAAUUCUGCUGGAUAUCUC, the self-cleavage was 1.21. On to UAACAGGGGGCCACAGCAGAAGCGUUCACGUCGCAGCCCCCGUCAGAUUCUGGUGAAUCUGCGAAUUCUGCUGUAUAACUC, for which the self-cleavage was determined as 1.13. To UAACAGGGGGCCACAGCAGAAGCGUUCACGUCGCAGCCCCCGUCAGAUUCUGGUGAAUCUGCGAAUUCUGCUGUAUAGCUC belongs 1.23; to UAACAGGGGGCCACAGCAGAAGCGUUCACGUCGCAGCCCCCGUCAGAUUCUGGUGAAUCUGCGAAUUCUGCUGUAUACCUC, 1.06.

For the variant UAACAGGGGGCCACAGCAGAAGCGUUCACGUCGCAGCCCCGGUCAGAUUCUGGUGACUCUGCGAAUUCUGCUGUAUAUCUC, the self-cleavage came out at 0.11.

As for UAACAGGGGGCCACAGCAGAAGCGUUCACGUCGCAGCCCCGGUCAGAUUCUGGUGAGUCUGCGAAUUCUGCUGUAUAUCUC, the self-cleavage turned out to be 0.23. To UAACAGGGGGCCACAGCAGAAGCGUUCACGUCGCAGCCCCGGUCAGAUUCUGGUGAAUCUGCGAAUUCUGCAGUAUAUCUC belongs 0.14. Regarding UAACAGGGGGCCACAGCAGAAGCGUUCACGUCGCAGCCCCGGUCAGAUUCUGGUGAAUCUGCGAAUUCUGCCGUAUAUCUC, the self-cleavage was 0.35. For UAACAGGGGGCCACAGCAGAAGCGUUCACGUCGCAGCCCCGGUCAGAUUCUGGUGAAUCUGCGAAUUCUGCGGUAUAUCUC, the self-cleavage stood at 0.41. On to UAACAGGGGGCCACAGCAGAAGCGUUCACGUCGCAGCCCCUAUCAGGUUCUGGUGAAUCUGCGAAUUCUGCUGUAUAUCUC, for which the self-cleavage was found to be 0.42.

As for UAACAGGGGGCCACAGCAGAAGCGUUCACGUCGCAGCCCCGGUCAGAUUCUGGUGAAUCUGCGAACUCUGCUGUAUAUCUC, the self-cleavage was 0.2.

For the variant UAACAGGGGGCCACAGCAGAAGCGUUCACGUCGCAGCCCCGGUCAGAUUCAGGUGAAUCUGCGAAUUCUGCUGUAUAUCUC, the self-cleavage came out at 0.37. Next, UAACAGGGGGCCACAGCAGAAGCGUUCACGUCGCAGCCCCGGUCAGAUUCGGGUGAAUCUGCGAAUUCUGCUGUAUAUCUC: 0.27. UAACAGGGGGCCACAGCAGAAGCGUUCACGUCGCAGCCCCGGUCAGAUUCCGGUGAAUCUGCGAAUUCUGCUGUAUAUCUC: the self-cleavage was determined as 0.21.
